In one assay the target is HLA-A*02:01 (human). The assay can be described thus: T2-A24 MHC class I stabilization, flow cytometry, anti-HLA-A02 BB7.2-FITC, peptide 100 ug/mL. The settings on record: remark: other sources report otherwise.

B1: MAGE-1161-169 peptide (peptide)
peptide: EADPTGHSY
In the case of B1, in the assay with HLA-A*02:01 (human), the MFI (solvent ratio) (ratio to solvent) is 1.

B2: VSV52-59 peptide (peptide)
peptide: RGYVYQGL
modifications: not checked
For the molecule B2, the MFI (solvent ratio) (ratio to solvent) in the assay with HLA-A*24:02 (human) came to 1.

(Values after US20170360911A1.)
